According to PMC8934651, “Yeast Ssd1 is a non-enzymatic member of the RNase II family with an alternative RNA recognition site”:

How the values were obtained:
[1] = target: T1, Ssd1 ΔN338 (Saccharomyces cerevisiae (S288C/BY4741 …, UniProt P24276 339-1250)); experiment: fluorescence anisotropy; Anisotropy: 20 nM RNA, 20 mM HEPES pH 7.5, 150 mM NaCl, 1 mM DTT, 0.01% Tween 20, 15 and 30 min on ice; EMSA: 0.5 uM RNA, 20 mM HEPES pH 7.5, 150 mM K acetate; conditions: protein: recombinant; tags: His tag cleaved with 3C protease; label: 5'-Cy3
T1 sequence: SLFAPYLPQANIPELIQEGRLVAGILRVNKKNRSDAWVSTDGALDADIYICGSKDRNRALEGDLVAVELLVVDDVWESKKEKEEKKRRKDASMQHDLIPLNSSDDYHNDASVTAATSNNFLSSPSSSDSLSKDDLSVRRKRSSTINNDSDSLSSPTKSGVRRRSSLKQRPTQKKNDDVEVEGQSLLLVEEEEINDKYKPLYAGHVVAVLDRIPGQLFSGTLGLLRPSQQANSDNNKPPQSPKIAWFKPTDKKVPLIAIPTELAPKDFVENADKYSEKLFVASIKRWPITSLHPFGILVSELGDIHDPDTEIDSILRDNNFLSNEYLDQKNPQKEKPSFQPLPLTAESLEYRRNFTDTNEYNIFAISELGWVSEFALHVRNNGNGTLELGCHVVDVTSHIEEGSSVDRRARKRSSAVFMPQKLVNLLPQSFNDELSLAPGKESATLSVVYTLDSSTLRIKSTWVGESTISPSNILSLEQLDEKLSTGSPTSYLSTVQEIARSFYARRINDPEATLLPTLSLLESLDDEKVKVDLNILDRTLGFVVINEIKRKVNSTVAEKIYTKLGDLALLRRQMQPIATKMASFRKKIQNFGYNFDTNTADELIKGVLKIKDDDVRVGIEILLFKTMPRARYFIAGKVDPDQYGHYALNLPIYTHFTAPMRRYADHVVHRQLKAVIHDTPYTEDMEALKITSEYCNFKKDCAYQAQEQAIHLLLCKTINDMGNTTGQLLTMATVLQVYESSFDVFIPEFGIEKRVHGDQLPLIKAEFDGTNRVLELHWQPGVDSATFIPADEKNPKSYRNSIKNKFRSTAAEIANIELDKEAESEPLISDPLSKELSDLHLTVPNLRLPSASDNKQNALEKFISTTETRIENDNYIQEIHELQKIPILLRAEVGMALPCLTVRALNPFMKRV

[2] = target: T1, Ssd1 ΔN338; experiment: as above; conditions: protein: recombinant, tags: His tag cleaved with 3C protease
[3] = target: T1, Ssd1 ΔN338; experiment: EMSA; 5 mM Mg acetate; no significant binding; Anisotropy: 20 nM RNA, 20 mM HEPES pH 7.5, 150 mM NaCl, 1 mM DTT, 0.01% Tween 20, 15 and 30 min on ice; EMSA: 0.5 uM RNA, 20 mM HEPES pH 7.5, 150 mM K acetate; conditions: protein: recombinant; tags: His tag cleaved with 3C protease; label: 5'-DY681

B1: SUN4-DUO_Mut1 (ssRNA)
RNA: CUUCCGGCUAAUUUUCACUCCUUUAA
[1]
  binding signal: ~2 fold reduction in affinity vs DUO-25mer

B2: SEE-15mer (ssRNA)
RNA: AUUUUCACUCCUUUAA
[2]; label: 5'-DY681 (EMSA), 5'-Cy3 (anisotropy)
  Kd: 0.166 µM

B3: DUO-17mer (ssRNA)
RNA: UAAUUUUCACUCCUUUAA
[2]; label: 5'-Cy3
  Kd: 0.124 µM

B4: DUO-19mer (ssRNA)
RNA: ACUAAUUUUCACUCCUUUAA
[2]; label: 5'-Cy3
  Kd: 0.042 µM

B5: CCACCU-16mer (CCAACU motif) (ssRNA)
RNA: AGAACUCUUCCAACUA
[3]
  binding result: no binding

B6: DUO-25mer (ssRNA)
RNA: CUUCCAACUAAUUUUCACUCCUUUAA
[2]; label: 5'-Cy3 (anisotropy)
  Kd: 0.008 µM

B7: DUO-21mer (ssRNA)
RNA: CAACUAAUUUUCACUCCUUUAA
[2]; label: 5'-Cy3
  Kd: 0.036 µM

B8: SUN4-DUO_Mut3 (ssRNA)
RNA: CUUCCGGCUAAUUUUUAUCCCUCUAA
[1]
  binding signal: ~10 fold further loss of affinity (vs Mut2)

B9: SUN4-DUO_Mut2 (ssRNA)
RNA: CUUCCAACUAAUUUUUAUCCCUCUAA
[2]; label: 5'-Cy3
  Kd: 0.104 µM
